{
  "source": "patent US20250051409A1",
  "about": "“MODULATORS OF PHOSPHATIDYLSERlNE DECARBOXYLASE AND USE THEREOF” (THE NATIONAL INSTITUTE FOR BIOTECHNOLOGY IN THE NEGEV LTD., priority 2021, published 2025)",
  "target": "Human recombinant SMAC (10339-H08E), Sino Biologicals (human) (UniProt Q9NR28)",
  "sequence (Q9NR28 56-239 limits assumed, stated change not applied)": "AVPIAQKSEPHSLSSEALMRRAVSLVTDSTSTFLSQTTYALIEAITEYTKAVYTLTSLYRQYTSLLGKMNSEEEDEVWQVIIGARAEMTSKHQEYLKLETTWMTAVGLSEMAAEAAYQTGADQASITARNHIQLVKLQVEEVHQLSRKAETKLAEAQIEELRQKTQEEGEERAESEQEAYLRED",
  "experiment": "microscale thermophoresis; fluorescently labelled SMAC (1 µM) with purified PSD (78-625 nM)",
  "data": [
    {"substance": "Purified recombinant protein (full length) of human phosphatidylserine decarboxylase (PSD), with N-terminal His tag, expressed in E. coli (Acris-OriGene) (from UniProt Q58DH2 60-416) (enzyme)", "values": [
      {"measurement": "Kd", "value": 246, "unit": "nM"}
    ]}
  ]
}
